Results on five molecules are retold here after article PMC6179186, “Novel RNA aptamers targeting gastrointestinal cancer biomarkers CEA, CA50 and CA72-4 with superior affinity and specificity”.

The test system of series [1] is CA50 (cancer antigen 50) (human). The experiment in a line: fluorescence titration. Conditions: 5 mM MgCl2; yeast tRNA competitor 1 ug/ul; RSB-100: 10 mM Tris-HCl pH 7.5, 5 mM MgCl2, 100 mM NaCl, 0.01% NP-40, yeast tRNA 1 ug/ul, room temperature, 10 min; 1 pmol RNA, antigen 0-200 nM.
In series [2] the test system is CA72-4 (cancer antigen 72-4) (human). The experiment in a line: fluorescence titration. To be noted: 5 mM MgCl2; yeast tRNA competitor 1 ug/ul; RSB-100: 10 mM Tris-HCl pH 7.5, 5 mM MgCl2, 100 mM NaCl, 0.01% NP-40, yeast tRNA 1 ug/ul, room temperature, 10 min; 1 pmol RNA, antigen 0-200 nM.
The target in series [3] is CEA (carcinoembryonic antigen) (human, UniProt P06731 35-685). Briefly: fluorescence titration; 5 mM MgCl2; yeast tRNA competitor 1 ug/ul; RSB-100: 10 mM Tris-HCl pH 7.5, 5 mM MgCl2, 100 mM NaCl, 0.01% NP-40, yeast tRNA 1 ug/ul, room temperature, 10 min; 1 pmol RNA, antigen 0-200 nM. Conditions: protein: commercial; label: Alexa Fluor 488 (ULS); mfold-predicted secondary structure.
Chain of CEA (carcinoembryonic antigen) (P06731 35-685): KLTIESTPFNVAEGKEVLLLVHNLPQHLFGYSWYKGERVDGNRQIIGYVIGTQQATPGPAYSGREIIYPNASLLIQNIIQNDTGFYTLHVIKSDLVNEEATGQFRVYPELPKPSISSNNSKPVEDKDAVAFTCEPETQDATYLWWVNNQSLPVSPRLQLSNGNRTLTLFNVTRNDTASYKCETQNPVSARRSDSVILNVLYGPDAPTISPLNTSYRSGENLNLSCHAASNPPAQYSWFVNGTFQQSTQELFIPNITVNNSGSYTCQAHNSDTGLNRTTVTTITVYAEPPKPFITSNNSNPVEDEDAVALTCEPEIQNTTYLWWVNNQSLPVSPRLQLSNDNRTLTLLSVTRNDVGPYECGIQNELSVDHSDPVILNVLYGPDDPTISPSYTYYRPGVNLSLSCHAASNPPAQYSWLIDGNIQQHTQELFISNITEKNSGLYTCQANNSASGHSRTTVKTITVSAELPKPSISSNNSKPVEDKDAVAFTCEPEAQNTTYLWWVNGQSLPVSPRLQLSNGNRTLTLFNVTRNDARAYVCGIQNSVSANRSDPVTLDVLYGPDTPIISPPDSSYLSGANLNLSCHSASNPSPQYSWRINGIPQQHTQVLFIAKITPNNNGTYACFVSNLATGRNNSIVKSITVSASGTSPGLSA

By Kd is commonly meant the equilibrium constant for the complex coming apart. The molecule “GGGUCGUGUCGGAUCCAGCUCGAAAGUGGGCUGGCGAUGUGUCCCGAAGCUUCUAAGGUAACGAU [CA50 A02]” came in with a dissociation constant Kd in series [1] of 30.7 nM. In the case of “GGGUCGUGUCGGAUCCCCCAAAAAGGAUUGGGGCGUCUGCAUGACCAAGCUUCUAAGGUAACGAU [CA72-4 A02]”, the Kd in series [2] turned out to be 71.2 nM.

“GGGUCGUGUCGGAUCCGUGAGUUUUUCGCGGCGAAGACAAGGCUCGAAGCUUCUAAGGUAACGAU [CA50 A01]” had a Kd in series [1] of 38 nM. “GGGUCGUGUCGGAUCCUGCGAAGGGGGGCAGAGGUUUGACGCGAGAAAGCUUCUAAGGUAACGAU [CA72-4 A01]” returned a Kd in series [2] of 52.7 nM.

B1: CEA A02 (structured_RNA)
RNA: GGGUCGUGUCGGAUCCAACGGCAUGACCUAACCUGGAGGCGCAUCAAAGCUUCUAAGGUAACGAU
For the molecule B1, in series [3], the Kd was 156 nM.
